Patent publication US20240261333A1 (published 2024)
Values belong to the binder of their own block, whether it stands above or below them.

Experiments:
Assay in all cases: co-IP with anti-FLAG, N-FLAG B3GNT2, mass spectrometry
CHCHD3 = target: T1, CHCHD3 (human, UniProt Q9NX63 2-227, limits assumed)
T1 construct: also called NP_001304106.1 (+1)
T1 sequence (looked up): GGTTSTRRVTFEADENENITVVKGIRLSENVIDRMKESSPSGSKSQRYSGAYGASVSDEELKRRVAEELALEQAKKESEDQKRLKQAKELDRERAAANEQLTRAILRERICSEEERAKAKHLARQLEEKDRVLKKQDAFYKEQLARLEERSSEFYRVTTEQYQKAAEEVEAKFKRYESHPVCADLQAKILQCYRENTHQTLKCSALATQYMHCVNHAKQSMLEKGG

RPS26 = RPS26 (human, UniProt P62854 2-115)
RPL7A = RPL7A (human, UniProt P62424 1-266)
TPM2 = target: T2, TPM2 (human, UniProt P07951-2 1-284, limits assumed)
T2 construct: also called NP_001288155.1

RBM14 = target: T3, RBM14 (human, UniProt Q96PK6 1-669)
T3 construct: also called XP_006319.1
T3 sequence (looked up): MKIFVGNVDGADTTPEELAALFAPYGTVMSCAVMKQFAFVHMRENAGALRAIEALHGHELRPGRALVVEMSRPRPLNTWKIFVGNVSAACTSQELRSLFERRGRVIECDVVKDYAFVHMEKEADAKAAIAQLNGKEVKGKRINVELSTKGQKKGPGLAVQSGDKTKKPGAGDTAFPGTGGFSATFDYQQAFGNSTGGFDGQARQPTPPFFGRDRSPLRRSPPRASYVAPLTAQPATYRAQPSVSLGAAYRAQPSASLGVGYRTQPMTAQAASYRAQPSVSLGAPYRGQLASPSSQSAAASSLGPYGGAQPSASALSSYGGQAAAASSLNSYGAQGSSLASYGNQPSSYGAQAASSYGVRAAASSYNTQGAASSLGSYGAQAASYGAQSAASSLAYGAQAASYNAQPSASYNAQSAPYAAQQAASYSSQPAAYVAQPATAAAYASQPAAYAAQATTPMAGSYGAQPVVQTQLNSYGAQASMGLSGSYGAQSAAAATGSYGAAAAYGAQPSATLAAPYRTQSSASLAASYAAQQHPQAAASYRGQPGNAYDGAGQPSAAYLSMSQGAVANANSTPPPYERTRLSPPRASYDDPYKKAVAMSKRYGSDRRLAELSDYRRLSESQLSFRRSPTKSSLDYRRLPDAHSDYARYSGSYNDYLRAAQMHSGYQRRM

PUF60 = target: T4, PUF60 (human, UniProt Q9UHX1 1-559, limits assumed)
T4 construct: also called NP_016868724.1
T4 sequence (looked up): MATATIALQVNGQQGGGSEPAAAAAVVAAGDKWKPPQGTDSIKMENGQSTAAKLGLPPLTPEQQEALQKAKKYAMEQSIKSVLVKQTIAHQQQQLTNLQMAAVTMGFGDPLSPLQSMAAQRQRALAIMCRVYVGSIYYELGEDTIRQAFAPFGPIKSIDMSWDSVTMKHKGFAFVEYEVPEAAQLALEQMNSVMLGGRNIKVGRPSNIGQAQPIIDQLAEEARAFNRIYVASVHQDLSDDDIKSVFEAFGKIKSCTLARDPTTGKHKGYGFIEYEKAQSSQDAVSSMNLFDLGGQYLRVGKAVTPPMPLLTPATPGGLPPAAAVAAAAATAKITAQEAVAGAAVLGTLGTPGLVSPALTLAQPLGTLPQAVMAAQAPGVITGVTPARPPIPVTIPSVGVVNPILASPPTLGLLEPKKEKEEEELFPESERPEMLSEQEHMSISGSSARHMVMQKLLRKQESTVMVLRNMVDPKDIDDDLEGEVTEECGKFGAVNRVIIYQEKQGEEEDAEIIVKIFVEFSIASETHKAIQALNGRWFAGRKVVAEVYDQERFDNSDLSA

PRRC2C = target: T5, PRRC2C (human, UniProt Q9Y520-4 1-2817, limits assumed)
T5 construct: also called NP_055987.2 (+10)

ARPC1B = target: T6, ARPC1B (human, UniProt O15143 2-372)
T6 construct: also called NP_005711.1

RPL6 = RPL6 (human, UniProt Q02878 2-288)

co-IP mass spectrometry count (CHCHD3): 16 | co-IP mass spectrometry count (RPS26): 6
B1: N-terminal FLAG tagged B3GNT2 (enzyme, human, UniProt Q9NY97 1-397, looked up)
chain: MSVGRRRIKLLGILMMANVFIYFIMEVSKSSSQEKNGKGEVIIPKEKFWKISTPPEAYWNREQEKLNRQYNPILSMLTNQTGEAGRLSNISHLNYCEPDLRVTSVVTGFNNLPDRFKDFLLYLRCRNYSLLIDQPDKCAKKPFLLLAIKSLTPHFARRQAIRESWGQESNAGNQTVVRVFLLGQTPPEDNHPDLSDMLKFESEKHQDILMWNYRDTFFNLSLKEVLFLRWVSTSCPDTEFVFKGDDDVFVNTHHILNYLNSLSKTKAKDLFIGDVIHNAGPHRDKKLKYYIPEVVYSGLYPPYAGGGGFLYSGHLALRLYHITDQVHLYPIDDVYTGMCLQKLGLVPEKHKGFRTFDIEEKNKNNICSYVDLMLVHSRKPQEMIDIWSQLQSAHLKC
notes: FLAG-tagged ORF overexpressed in cells; pulled down from lysate with mouse anti-FLAG; also called N-FLAG B3GNT2; N-term FLAG; not shown: N-terminal FLAG tag

co-IP/MS count, N-term FLAG (RPL7A): 8 | co-IP/MS count, N-term FLAG (TPM2): 0 | co-IP/MS count, N-term FLAG (RBM14): 3 | co-IP/MS count, N-term FLAG (PUF60): 6 | co-IP/MS count, N-term FLAG (PRRC2C): 6 | co-IP/MS count, N-term FLAG (ARPC1B): 0 | co-IP/MS count, N-term FLAG (RPL6): 10
B2: N-terminal FLAG tagged B3GNT2 (enzyme, human, UniProt Q9NY97 1-397, looked up)
chain: B1 chain
notes: FLAG-tagged ORF overexpressed in A375 cells; pulled down from the lysate with mouse anti-FLAG; also called N-FLAG B3GNT2; N-term FLAG; not shown: N-terminal FLAG tag
